According to US20190169289A1 (Scripps Research, published 2019):

T1: CLL1 (UniProt Q5QGZ9 1-265, limits assumed)
T1 sequence (looked up): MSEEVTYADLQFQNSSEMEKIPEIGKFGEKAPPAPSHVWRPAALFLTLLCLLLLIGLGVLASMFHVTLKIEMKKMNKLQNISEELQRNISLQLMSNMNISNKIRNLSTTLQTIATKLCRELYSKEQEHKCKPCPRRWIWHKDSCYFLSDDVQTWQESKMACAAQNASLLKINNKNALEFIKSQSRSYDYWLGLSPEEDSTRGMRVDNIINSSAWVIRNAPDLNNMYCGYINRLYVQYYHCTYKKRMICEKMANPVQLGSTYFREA

T2: anti-GCN4 (52SR4 scFv) sCAR with IgG4m hinge
T2 construct: disulfide dimer by western blot; also called short-dimeric sCAR; IgG4m sCAR
T2 chain: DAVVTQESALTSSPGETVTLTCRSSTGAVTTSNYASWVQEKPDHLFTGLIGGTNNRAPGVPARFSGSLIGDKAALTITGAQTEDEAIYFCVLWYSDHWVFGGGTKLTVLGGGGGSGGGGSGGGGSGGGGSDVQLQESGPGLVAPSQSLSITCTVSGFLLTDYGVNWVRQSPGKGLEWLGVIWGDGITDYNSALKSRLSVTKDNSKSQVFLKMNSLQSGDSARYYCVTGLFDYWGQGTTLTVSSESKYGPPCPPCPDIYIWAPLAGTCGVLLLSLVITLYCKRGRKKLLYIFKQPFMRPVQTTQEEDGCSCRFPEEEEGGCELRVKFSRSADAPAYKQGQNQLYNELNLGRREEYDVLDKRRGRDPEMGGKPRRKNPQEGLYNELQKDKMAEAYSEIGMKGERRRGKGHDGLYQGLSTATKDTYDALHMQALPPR

B1: anti-CLL1 (1075.7) Fab switch D (light chain C terminus) (Fab)
light: ENVLTQSPAIMSASPGEKVTMTCRASSNVISSYVHWYQQRSGASPKLWIYSTSNLASGVPARFSGSGSGTSYSLTISSVEAEDAATYYCQQYSGYPLTFGAGTKLELKRAAAAPSVFIFPPSDEQLKSGTASVVCLLNNFYPREAKVQWKVDNALQSGNSQESVTEQDSKDSTYSLSSTLTLSKADYEKHKVYACEVTHQGLSSPVTKSFNRGECGGGGSNYHLENEVARLKKL
heavy: DIQLQESGPGLVKPSQSLSLTCSVTGYSITSAYYWNWIRQFPGNKLEWMGYISYDGRNNYNPSLKNRISITRDTSKNQFFLKLNSVTTEDTATYYCAKEGDYDVGNYYAMDYWGQGTSVTVSSARTKGPSVFPLAPSSKSTSGGTAALGCLVKDYFPEPVTVSWNSGALTSGVHTFPAVLQSSGLYSLSSVVTVPSSSLGTQTYICNVNHKPSNTKVDKKVEPKSC
B2: anti-CLL1 (1075.7) Fab bivalent switch C + D (Fab)
light: ENVLTQSPAIMSASPGEKVTMTCRASSNVISSYVHWYQQRSGASPKLWIYSTSNLASGVPARFSGSGSGTSYSLTISSVEAEDAATYYCQQYSGYPLTFGAGTKLELKRAAAAPSVFIFPPSDEQLKSGTASVVCLLNNFYPREAKVQWKVDNALQSGNSQESVTEQDSKDSTYSLSSTLTLSKADYEKHKVYACEVTHQGLSSPVTKSFNRGECGGGGSNYHLENEVARLKKL
heavy: DIQLQESGPGLVKPSQSLSLTCSVTGYSITSAYYWNWIRQFPGNKLEWMGYISYDGRNNYNPSLKNRISITRDTSKNQFFLKLNSVTTEDTATYYCAKEGDYDVGNYYAMDYWGQGTSVTVSSARTKGPSVFPLAPSSKSTSGGTAALGCLVKDYFPEPVTVSWNSGALTSGVHTFPAVLQSSGLYSLSSVVTVPSSSLGTQTYICNVNHKPSNTKVDKKVEPKSCGGGGSNYHLENEVARLKKL
B3: anti-CD19 (FMC63) Fab CTBV switch (Fab)
light: DIQMTQTTSSLSASLGDRVTISCRASQDISKYLNWYQQKPDGTVKLLIYHTSRLHSGVPSRFSGSGSGTDYSLTISNLEQEDIATYFCQQGNTLPYTFGGGTKLEIKRTVAAPSVFIFPPSDEQLKSGTASVVCLLNNFYPREAKVQWKVDNALQSGNSQESVTEQDSKDSTYSLSSTLTLSKADYEKHKVYACEVTHQGLSSPVTKSFNRGECGGGGSNYHLENEVARLKKL
heavy: EVKLQESGPGLVAPSQSLSVTCTVSGVSLPDYGVSWIRQPPRKGLEWLGVIWGSETTYYNSALKSRLTIIKDNSKSQVFLKMNSLQTDDTAIYYCAKHYYYGGSYAMDYWGQGTSVTVSSASTKGPSVFPLAPSSKSTSGGTAALGCLVKDYFPEPVTVSWNSGALTSGVHTFPAVLQSSGLYSLSSVVTVPSSSLGTQTYICNVNHKPSNTKVDKKVEPKSCGGGGSNYHLENEVARLKKL
notes: the text prints 97 & 34; also called BV CT
B4: anti-CD19 (FMC63) Fab LCC1 switch (Fab)
light: DIQMTQTTSSLSASLGDRVTISCRASQDISKYLNWYQQKPDGTVKLLIYHTSRLHSGVPSRFSGSGSGTDYSLTISNLEQEDIATYFCQQGNTLPYTFGGGTKLEIKRTVAAPSVFIFPPSDEQLKSGTASVVCLLNNFYPREAKVQWKVDNALQSGNSQESVTEQDSGGGGSNYHLENEVARLKKLGGGGSDSTYSLSSTLTLSKADYEKHKVYACEVTHQGLSSPVTKSFNRGEC
heavy: EVKLQESGPGLVAPSQSLSVTCTVSGVSLPDYGVSWIRQPPRKGLEWLGVIWGSETTYYNSALKSRLTIIKDNSKSQVFLKMNSLQTDDTAIYYCAKHYYYGGSYAMDYWGQGTSVTVSSASTKGPSVFPLAPSSKSTSGGTAALGCLVKDYFPEPVTVSWNSGALTSGVHTFPAVLQSSGLYSLSSVVTVPSSSLGTQTYICNVNHKPSNTKVDKKVEPKSC
notes: also called anti-CD19 Fab CL1-GCN4
B5: anti-CD19 (FMC63) Fab C1BV switch (Fab)
light: DIQMTQTTSSLSASLGDRVTISCRASQDISKYLNWYQQKPDGTVKLLIYHTSRLHSGVPSRFSGSGSGTDYSLTISNLEQEDIATYFCQQGNTLPYTFGGGTKLEIKRTVAAPSVFIFPPSDEQLKSGTASVVCLLNNFYPREAKVQWKVDNALQSGNSQESVTEQDSGGGGSNYHLENEVARLKKLGGGGSDSTYSLSSTLTLSKADYEKHKVYACEVTHQGLSSPVTKSFNRGEC
heavy: EVKLQESGPGLVAPSQSLSVTCTVSGVSLPDYGVSWIRQPPRKGLEWLGVIWGSETTYYNSALKSRLTIIKDNSKSQVFLKMNSLQTDDTAIYYCAKHYYYGGSYAMDYWGQGTSVTVSSASTKGPSVFPLAPSSNYHLENEVARLKKLSGGTAALGCLVKDYFPEPVTVSWNSGALTSGVHTFPAVLQSSGLYSLSSVVTVPSSSLGTQTYICNVNHKPSNTKVDKKVEPKSC
notes: also called BV C1
B6: anti-CD19 (FMC63) Fab LCCT switch (Fab)
light: DIQMTQTTSSLSASLGDRVTISCRASQDISKYLNWYQQKPDGTVKLLIYHTSRLHSGVPSRFSGSGSGTDYSLTISNLEQEDIATYFCQQGNTLPYTFGGGTKLEIKRTVAAPSVFIFPPSDEQLKSGTASVVCLLNNFYPREAKVQWKVDNALQSGNSQESVTEQDSKDSTYSLSSTLTLSKADYEKHKVYACEVTHQGLSSPVTKSFNRGECGGGGSNYHLENEVARLKKL
heavy: EVKLQESGPGLVAPSQSLSVTCTVSGVSLPDYGVSWIRQPPRKGLEWLGVIWGSETTYYNSALKSRLTIIKDNSKSQVFLKMNSLQTDDTAIYYCAKHYYYGGSYAMDYWGQGTSVTVSSASTKGPSVFPLAPSSKSTSGGTAALGCLVKDYFPEPVTVSWNSGALTSGVHTFPAVLQSSGLYSLSSVVTVPSSSLGTQTYICNVNHKPSNTKVDKKVEPKSC
B7: anti-CLL1 (1075.7) Fab switch C (heavy chain C terminus) (Fab, V domains shown)
VH: DIQLQESGPGLVKPSQSLSLTCSVTGYSITSAYYWNWIRQFPGNKLEWMGYISYDGRNNYNPSLKNRISITRDTSKNQFFLKLNSVTTEDTATYYCAKEGDYDVGNYYAMDYWGQGTSVTVSS
VL: ENVLTQSPAIMSASPGEKVTMTCRASSNVISSYVHWYQQRSGASPKLWIYSTSNLASGVPARFSGSGSGTSYSLTISSVEAEDAATYYCQQYSGYPLTFGAGTKLELKR
B8: anti-CLL1 (1075.7) Fab bivalent switch A + B (Fab, V domains shown)
VH: DIQLQESGPGLVKPSQSLSLTCSVTGYSITSAYYWNWIRQFPGNKLEWMGYISYDGRNNYNPSLKNRISITRDTSKNQFFLKLNSVTTEDTATYYCAKEGDYDVGNYYAMDYWGQGTSVTVSS
VL: ENVLTQSPAIMSASPGEKVTMTCRASSNVISSYVHWYQQRSGASPKLWIYSTSNLASGVPARFSGSGSGTSYSLTISSVEAEDAATYYCQQYSGYPLTFGAGTKLELKR
B9: anti-CLL1 (1075.7) Fab switch A (LCNT1) (Fab, V domains shown)
VH: DIQLQESGPGLVKPSQSLSLTCSVTGYSITSAYYWNWIRQFPGNKLEWMGYISYDGRNNYNPSLKNRISITRDTSKNQFFLKLNSVTTEDTATYYCAKEGDYDVGNYYAMDYWGQGTSVTVSS
VL: ENVLTQSPAIMSASPGEKVTMTCRASSNVISSYVHWYQQRSGASPKLWIYSTSNLASGVPARFSGSGSGTSYSLTISSVEAEDAATYYCQQYSGYPLTFGAGTKLELKR
B10: anti-CLL1 (1075.7) Fab switch B (HCNT3) (Fab, V domains shown)
VH: DIQLQESGPGLVKPSQSLSLTCSVTGYSITSAYYWNWIRQFPGNKLEWMGYISYDGRNNYNPSLKNRISITRDTSKNQFFLKLNSVTTEDTATYYCAKEGDYDVGNYYAMDYWGQGTSVTVSS
VL: ENVLTQSPAIMSASPGEKVTMTCRASSNVISSYVHWYQQRSGASPKLWIYSTSNLASGVPARFSGSGSGTSYSLTISSVEAEDAATYYCQQYSGYPLTFGAGTKLELKR
B11: anti-CD19 (FMC63) Fab HCCT switch (Fab, V domains shown)
VH: EVKLQESGPGLVAPSQSLSVTCTVSGVSLPDYGVSWIRQPPRKGLEWLGVIWGSETTYYNSALKSRLTIIKDNSKSQVFLKMNSLQTDDTAIYYCAKHYYYGGSYAMDYWGQGTSVTVSS
VL: DIQMTQTTSSLSASLGDRVTISCRASQDISKYLNWYQQKPDGTVKLLIYHTSRLHSGVPSRFSGSGSGTDYSLTISNLEQEDIATYFCQQGNTLPYTFGGGTKLEIKR
notes: also called C-terminal switch
B12: anti-CD19 (FMC63) Fab with no grafted peptide (Fab, V domains shown)
VH: EVKLQESGPGLVAPSQSLSVTCTVSGVSLPDYGVSWIRQPPRKGLEWLGVIWGSETTYYNSALKSRLTIIKDNSKSQVFLKMNSLQTDDTAIYYCAKHYYYGGSYAMDYWGQGTSVTVSS
VL: DIQMTQTTSSLSASLGDRVTISCRASQDISKYLNWYQQKPDGTVKLLIYHTSRLHSGVPSRFSGSGSGTDYSLTISNLEQEDIATYFCQQGNTLPYTFGGGTKLEIKR
notes: also called WT; wild type anti-CD19 Fab
B13: anti-CD19 (FMC63) Fab NTBV switch (Fab, V domains shown)
VH: EVKLQESGPGLVAPSQSLSVTCTVSGVSLPDYGVSWIRQPPRKGLEWLGVIWGSETTYYNSALKSRLTIIKDNSKSQVFLKMNSLQTDDTAIYYCAKHYYYGGSYAMDYWGQGTSVTVSS
VL: DIQMTQTTSSLSASLGDRVTISCRASQDISKYLNWYQQKPDGTVKLLIYHTSRLHSGVPSRFSGSGSGTDYSLTISNLEQEDIATYFCQQGNTLPYTFGGGTKLEIKR
notes: also called BV NT

Columns and labels:
CLL1 [1] = biological target: T1, CLL1; test: cell-based or functional assay
CLL1 [2] = biological target: T1, CLL1; test: cell-based or functional assay; remark: listed apart in the source
[3] = biological target: T3, anti-GCN4 (52SR4 scFv) sCAR with CD8 hinge; test: flow cytometry on CD8 sCAR-T cells, switch 30 min at 4 C, detected with PE-conjugated goat anti-human kappa chain antibody, MFI
T3 construct: 273 is the protein without leader; also called sCAR (long); CD8 sCAR
Excerpt: Cells were washed two times and analyzed using the Accuri flow cytometer (BD).

[4] = biological target: T2, anti-GCN4 (52SR4 scFv) sCAR with IgG4m …; test: flow cytometry competition on CAR-T cells with the GCN4 CAR (SEQ ID NO. 74): 1 nM labelled GCN4 peptide (GCN4-AF488) as competitor, unlabelled peptide titrated, MFI of the labelled peptide read
Excerpt: Un-labelled peptide binding efficiency was indirectly shown by measuring the mean fluorescence intensity (MFI) staining with the labelled peptide.
Cells were then washed twice with cold PBS to remove the free labelled peptide before being analyzed using the BD Accuri flow cytometer.

Binder | EC50 of cytotoxicity, short hinge CAR (CLL1 [1]) [pM] | EC50 of cytotoxicity, long hinge CAR (CLL1 [2]) [pM] | EC50 [3] [pM] | also measured
B1 | 5.1 | 2.2 | – | –
B2 | 1.2 | 3.1 | – | –
B3 | – | – | 360 | –
B4 | – | – | 4600 | –
B5 | – | – | 620 | –
B6 | – | – | 4600 | –
B7 | 4.9 | 3.3 | – | –
B8 | 0.5 | 0.6 | – | –
B9 | 1.5 | 4.1 | – | –
B10 | 0.6 | 1.3 | – | –
AAALENEVARLKKL [Peptide 4: AAALENEVARLKKL] | – | – | – | binding result [4]: no binding (tested: 10^3 nM)
B11 | – | – | 11700 | –
B12 | – | – | – | binding result [3]: no binding (tested: 10^2 nM)
B13 | – | – | 690 | –
